Data from publication doi:10.1101/2024.06.06.597810.

Biological target: Biotin-labeled MHV stem helix peptide (MHV)
Assay: BLI

## S2P6 WT Fab
  Kd: 70.4 nM
